Patent US20200262867A1 (WNTRX PHARMACEUTICALS, published 2020)
Bridges are numbered along the chain shown (N, C = ends). Primed or numbered codes have the meaning given here. Where no end group is shown, it is not given here. [ ]: non-standard residue; d: D form. The star is where a group is joined. S5′ = (S)-2-(4'-pentenyl)alanine, olefinic stapling residue closed by ring-closing metathesis; NMeR′ = N-methylarginine (methylation site not shown in the text); 2Nal = N[C@@H](Cc1ccc2ccccc2c1)C(=O)O; pentenylAla = 2-(4'-pentenyl)alanine; NMeR = CN[C@@H](CCCNC(=N)N)C(=O)O; Ala(cPr) = N[C@@H](CC1CC1)C(=O)O; NMeT = CN[C@H](C(=O)O)[C@@H](C)O; hArg = N=C(N)NCCCC[C@H](N)C(=O)O; NMeQ = CN[C@@H](CCC(N)=O)C(=O)O; dNMeQ = CN[C@H](CCC(N)=O)C(=O)O; Cha = N[C@@H](CC1CCCCC1)C(=O)O; NMeL = CN[C@@H](CC(C)C)C(=O)O; αMeL = CC(C)C[C@](C)(N)C(=O)O; Cba = N[C@@H](CC1CCC1)C(=O)O; S5 = C=CCCC[C@](C)(N)C(=O)O; Nle = CCCC[C@H](N)C(=O)O; Abu = CC[C@H](N)C(=O)O; Hexanoyl = CCCCCC(=O)*; Propionyl = CCC(=O)*; βAla = NCCC(=O)O

T1: β-catenin (UniProt P35222 1-781, limits assumed)
T1 construct: also called beta-catenin
T1 sequence (looked up): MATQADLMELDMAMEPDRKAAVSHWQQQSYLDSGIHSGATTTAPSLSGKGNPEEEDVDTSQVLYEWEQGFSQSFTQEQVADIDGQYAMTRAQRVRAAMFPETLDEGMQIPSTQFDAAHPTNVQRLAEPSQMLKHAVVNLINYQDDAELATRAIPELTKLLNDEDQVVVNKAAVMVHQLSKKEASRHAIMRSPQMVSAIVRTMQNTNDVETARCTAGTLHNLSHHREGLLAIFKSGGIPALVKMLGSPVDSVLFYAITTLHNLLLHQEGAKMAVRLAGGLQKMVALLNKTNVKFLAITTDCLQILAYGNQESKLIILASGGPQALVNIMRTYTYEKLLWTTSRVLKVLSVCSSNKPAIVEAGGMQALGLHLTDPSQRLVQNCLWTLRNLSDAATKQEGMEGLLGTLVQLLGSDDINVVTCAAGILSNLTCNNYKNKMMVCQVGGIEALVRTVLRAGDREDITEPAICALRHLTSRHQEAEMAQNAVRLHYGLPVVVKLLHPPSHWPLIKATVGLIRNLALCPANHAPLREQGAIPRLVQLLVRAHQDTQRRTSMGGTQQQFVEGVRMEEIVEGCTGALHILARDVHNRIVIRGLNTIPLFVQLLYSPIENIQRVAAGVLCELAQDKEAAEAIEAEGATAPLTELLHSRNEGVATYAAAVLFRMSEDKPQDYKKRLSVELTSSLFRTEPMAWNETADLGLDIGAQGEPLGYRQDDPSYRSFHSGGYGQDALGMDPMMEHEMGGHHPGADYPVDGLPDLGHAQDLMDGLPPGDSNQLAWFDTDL

B1: SEQ ID NO: 119 (peptide)
peptide: Ac-LQTLR[S5]IQR[S5][Ala(cPr)][2Nal]-NH2
modifications: staple 6-10; not fully specified (residue 2); printed as LN(Me-Gln)TLRXIQRX(Cpa)(2-Nal)
B2: SEQ ID NO: 126 (peptide)
peptide: Ac-L[NMeQ]T[αMeL]R[S5]IQR[S5][Cba][2Nal]-NH2
modifications: staple 6-10; not fully specified; printed as L(N-methylQ)T(α-methylL)RXIQRX(CBA)(2-Nal)
B3: SEQ ID NO: 121 (peptide)
peptide: Ac-LQ[NMeT]LR[S5]IQR[S5][Cba][2Nal]-NH2
modifications: staple 6-10; not fully specified (residue 2); printed as L(N-methylQ)(N-methylT)LRXIQRX(CBA)(2-Nal)
B4: SEQ ID NO: 120 (peptide)
peptide: HOCH2CH2CO-LQTLR[S5]IQR[S5][Cba][2Nal]-NH2
modifications: staple 6-10; not fully specified (residue 2); printed as L(N-methylQ)TLRXIQRX(CBA)(2-Nal)
B5: SEQ ID NO: 124 (peptide)
peptide: Ac-L[NMeQ]TL[NMeR′][S5]IQR[S5][Cba][2Nal]-NH2
modifications: staple 6-10; not fully specified; printed as L(N-methylQ)TL(N-methylR)XIQRX(CBA)(2-Nal)
B6: SEQ ID NO: 116 (peptide)
peptide: L[dNMeQ]TLR[S5]I[dNMeQ]R[S5][Cba][2Nal]
modifications: staple 6-10; not fully specified (N-terminus, C-terminus); printed as L(N-methylQ)TLRXI(N-methylQ)RX(CBA)(2-Nal), X/X stapled, (S) α-methyl, N-terminal Ac, C-terminal NH2
B7: SEQ ID NO: 128 (peptide)
peptide: Ac-LQTL[NMeR′][S5]IQ[NMeR′][S5][Cba][2Nal]-NH2
modifications: staple 6-10; not fully specified (residue 2); printed as L(N-methylQ)TL(N-methylR)XIQ(N-methylR)X(CBA)(2-Nal)
B8: SEQ ID NO: 122 (peptide)
peptide: Ac-LQTLR[S5]IQR[S5][Cha][2Nal]-NH2
modifications: staple 6-10; not fully specified (residue 2); printed as L(N-methylQ)TLRXIQRX(Cha)(2-Nal)
B9: SEQ ID NO: 127 (peptide)
peptide: Ac-LQTLR[S5]IQR[S5][Cha][2Nal]-NH2
modifications: staple 6-10
SMILES: CC[C@H](C)[C@@H]1NC(=O)[C@@](C)(NC(=O)[C@H](CCCNC(=N)N)NC(=O)[C@H](CC(C)C)NC(=O)[C@@H](NC(=O)[C@H](CCC(N)=O)NC(=O)[C@H](CC(C)C)NC(C)=O)[C@@H](C)O)CCCC=CCCC[C@@](C)(C(=O)N[C@@H](CC2CCCCC2)C(=O)N[C@@H](Cc2ccc3ccccc3c2)C(N)=O)NC(=O)[C@H](CCCNC(=N)N)NC(=O)[C@H](CCC(N)=O)NC1=O
B10: SEQ ID NO: 132 (peptide)
peptide: Ac-L[NMeQ]TL[hArg][S5]IQR[S5][Cba][2Nal]-NH2
modifications: staple 6-10; not fully specified; printed as L(N-methylQ)TL(homoR)XIQRX(CBA)(2-Nal)
B11: SEQ ID NO: 118 (peptide)
peptide: Ac-[NMeL]QTLR[S5]IQR[S5][Cba][2Nal]-NH2
modifications: staple 6-10; not fully specified (residue 2); printed as (Me-L)(N-MeQ)TLRXIQRX(CBA)(2-Nal)
B12: SEQ ID NO: 125 (peptide)
peptide: Ac-L[NMeQ]TLR[S5]IQ[NMeR′][S5][Cba][2Nal]-NH2
modifications: staple 6-10; not fully specified; printed as L(N-methylQ)TLRXIQ(N-methylR)X(CBA)(2-Nal)

The binders below were run against T1, β-catenin (assay: ALPHA Screen (BCL9/β-catenin);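 note: bead proximity readout with the polypeptide linked to donor beads and β-catenin fixed on acceptor beads, their binding bringing the beads close enough to emit signal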).
Text: In this assay, a polypeptide is conjugated to a donor bead and its target protein (i.e., β-catenin) is attached to an acceptor bead. When the two beads are in proximity due to the binding of the polypeptide to the target protein, a signal is generated and the binding affinity of the polypeptide can be quantitatively calculated. The assay may be conducted in the presence or absence of an unconjugated control polypeptide.

Point of comparison: Ac-HR[S5′]RSL[S5′]TLR[S5′]IQR[S5′][Cba][2Nal]-NH2 (staple 11-15, 3-7) [SEQ ID NO: 94], IC50 0.175 µM. Against it:
- B1 — 90-fold higher, 15.8 µM
- B2 — 42-fold higher, 7.43 µM
- Ac-QLEHRERSL[S5]TLR[S5]IQR[Abu]L[2Nal][βAla][βAla]-NH2 (staple 10-14) [SEQ ID NO: 78] — 1.9-fold lower, 0.09 µM
- Ac-LQTLR[S5]IQR[S5]L[2Nal]P-NH2 (staple 6-10; not fully specified; printed as LQTLRXIQRXL(2-Nal)P) [SEQ ID NO: 33] — 67-fold higher, 11.8 µM
- H-HRE[S5′]SLQ[S5′]LR[S5′]IQR[S5′][Cba][2Nal]-OH (staple 11-15, 4-8) [SEQ ID NO: 82] — 5.8-fold higher, 1.01 µM
- Ac-HRQ[S5′]SLQ[S5′]LR[S5′]IQR[S5′][Cba][2Nal]-NH2 (staple 11-15, 4-8) [SEQ ID NO: 87] — 15-fold higher, 2.66 µM
- Ac-HRE[S5′]SLQ[S5′]LR[S5′]IQQ[S5′][Cba][2Nal]-OH (staple 11-15, 4-8) [SEQ ID NO: 83] — 290-fold higher, 50 µM
- Ac-LQTLR[S5]IQR[S5][Cba][2Nal]-NH2 (staple 6-10) [SEQ ID NO: 107] — 1.8-fold higher, 0.316 µM
- Ac-HRE[S5′]SLQ[S5′]LR[Nle]IQR[Nle]L[2Nal]-OH (staple 4-8) [SEQ ID NO: 80] — 30-fold higher, 5.33 µM
- Ac-HRE[S5′]SLQ[S5′]LR[Nle]IQR[Nle][Cba][2Nal]-OH (staple 4-8) [SEQ ID NO: 81] — 260-fold higher, 45.5 µM
- Ac-LQTL[NMeR][S5]IQR[S5][Cba][2Nal]-NH2 (staple 6-10; not fully specified (residue 2)) [SEQ ID NO: 117] — 24-fold higher, 4.23 µM
- B3 — 29-fold higher, 5.01 µM
- Ac-L[NMeQ]TLR[S5]IQ[hArg][S5][Cba][2Nal]-NH2 (staple 6-10; also: N-methyl-Gln at 2: filing says both D and L) [SEQ ID NO: 133] — 53-fold higher, 9.2 µM
- Hexanoyl-L[NMeQ]TLR[S5]IQR[S5][Cba][2Nal]-NH2 (staple 6-10; also: N-methyl-Gln at 2: filing says both D and L) [SEQ ID NO: 136] — 20-fold higher, 3.52 µM
- B4 — 31-fold higher, 5.44 µM
- B5 — 16-fold higher, 2.74 µM
- R[pentenylAla][Ala(cPr)][dNMeQ][pentenylAla][Ala(cPr)]R[pentenylAla]IQR[pentenylAla][Ala(cPr)][2Nal][βAla][βAla] (staple 8-12, 2-5) [SEQ ID NO: 89] — 14-fold higher, 2.46 µM
- B6 — 150-fold higher, 26.9 µM
- Ac-LQTLR[S5]IQR[S5]L[2Nal]PD-NH2 (staple 6-10; not fully specified; printed as LQTLRXIQRXL(2-Nal)PD) [SEQ ID NO: 32] — 70-fold higher, 12.2 µM
- EHRERSLQTLR[Nle]IQR[Nle]L[2Nal] [SEQ ID NO: 64] — 9.9-fold higher, 1.73 µM
- B7 — 170-fold higher, 29.5 µM
- LQTLRDIQRML[2Nal] [SEQ ID NO: 51] — 33-fold higher, 5.78 µM
- LR[Nle]IQR[Nle]L[2Nal] [SEQ ID NO: 50] — 15-fold higher, 2.54 µM
- B8 — 41-fold higher, 7.17 µM
- B9 — 58-fold higher, 10.1 µM
- QLEHRERSLQTLRDIQRML[2Nal] [SEQ ID NO: 65] — 9.4-fold higher, 1.64 µM
- QLEHRERSL[Nle]TLR[Nle]IQRML[2Nal] [SEQ ID NO: 67] — 6.2-fold higher, 1.08 µM
- QLEHRERSLQTLR[Nle]IQR[Nle]L[2Nal] [SEQ ID NO: 66] — 4.2-fold higher, 0.73 µM
- LQTLR[Nle]IQR[Nle]L[2Nal] [SEQ ID NO: 52] — 27-fold higher, 4.7 µM
- Ac-RSLQTLR[S5]IQR[S5]L[2Nal]-NH2 (staple 8-12; not fully specified; printed as RSLQTLRXIQRXL(2-Nal)) [SEQ ID NO: 4] — 11-fold higher, 1.91 µM
- B10 — 64-fold higher, 11.2 µM
- B11 — 36-fold higher, 6.33 µM
- B12 — 61-fold higher, 10.6 µM
- Propionyl-L[NMeQ]TLR[S5]IQR[S5][Cba][2Nal]-NH2 (staple 6-10; also: N-methyl-Gln at 2: filing says both D and L) [SEQ ID NO: 135] — 49-fold higher, 8.54 µM
